{
  "source": "patent US20050182242A1",
  "about": "“Global analysis of protein activities using proteome chips” (priority 2001, published 2005)",
  "key": {"total yeast genomic DNA": {"system": "total yeast genomic DNA", "assay": "Yeast proteome chip probed with labeled genomic DNA", "format": "binding", "details": "Cy3-labeled genomic DNA, visual inspection", "from_the_text": "Protein-DNA and protein-RNA interactions are important for many fundamental biological functions such as transcription regulation, chromosome segregation and maintenance, and RNA transport and processing (Williamson, 2000, Nat. Struct. Biol. 7(10):834-7). To explore the possibility of using a proteome chip to identify proteins that bind to DNA or RNA molecules, total yeast genomic DNA was labeled using Cy3-CTP and Klenow fragment, and polyA^+ was labeled using a biotinylated psoralen-derivative (31). Each probe was incubated with a different proteome chip (FIG. 3A).\nThe protein-nucleic acid interaction was assayed as follows. The nucleic acid robes were labeled as described by Winzeler et al. (1999, Science 285:901). Blocked proteome chips were washed three to five times in PBS buffer, and the extra liquid on the glass surface was removed by tapping the slides vertically on a KIMWIPE™. 200 μl of labeled nuclei acid probe ([…] poly(dC/dG); 100-300 mM NaCl; 50-300 mM HEPES, pH 7.0-8.5; 10 mM MgCl2) was added to the proteome chip and immediately covered by a hydrophobic plastic cover slip (GRACE BIO-LABS™, USA). After trapped air bubbles were removed, the chip was incubated in a humidity chamber in the dark at room temperature (“RT”) for one hour. To remove the cover slip, the chip was immersed into large volume of PBS buffer(>50 ml), so that the slip would float away. The chip was then moved to a second PBS bath (>50 ml) and washed 3×5 min with shaking in the dark at RT. To completely remove the liquid on the chip, the chip was spun to dryness at 1500-2000 rpm for 5-10 min at RT."}, "PI(3)P liposomes": {"system": "PI(3)P liposomes", "assay": "Yeast proteome chip probed with PI(3)P liposomes", "details": "liposome binding signal on yeast proteome chip, Cy3-streptavidin detection"}, "PI(3,4,5)P3 liposomes": {"system": "PI(3,4,5)P3 liposomes", "assay": "Yeast proteome chip probed with PI(3,4,5)P3 liposomes", "details": "liposome binding signal on yeast proteome chip, Cy3-streptavidin detection"}, "PI(3,4)P2 liposomes": {"system": "PI(3,4)P2 liposomes", "assay": "Yeast proteome chip probed with PI(3,4)P2 liposomes", "details": "liposome binding signal on yeast proteome chip, Cy3-streptavidin detection"}, "PI(4,5)P2 liposomes": {"system": "PI(4,5)P2 liposomes", "assay": "Yeast proteome chip probed with PI(4,5)P2 liposomes", "details": "liposome binding signal on yeast proteome chip, Cy3-streptavidin detection"}, "[1]": {"system": "phosphatidylcholine (PC) liposomes", "assay": "Yeast proteome chip probed with PC liposomes", "details": "liposome binding signal on yeast proteome chip, Cy3-streptavidin detection", "outline": "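Sonicated liposomes in TBS, of phosphatidylcholine with 1% (w/w) biotin-DHPE plus 5% (w/w) of the named phosphoinositide (PC-only liposomes lacking it), were incubated on blocked chips of GST-RGS-His6-tagged yeast ORF proteins for 1 h at RT. Bound liposomes were detected with Cy3- or Cy5-streptavidin after PBS washes.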"}, "PI(4)P liposomes": {"system": "PI(4)P liposomes", "assay": "Yeast proteome chip probed with PI(4)P liposomes", "details": "liposome binding signal on yeast proteome chip, Cy3-streptavidin detection"}},
  "data": [
    {"molecule": "Ypt31p: yeast protein with GTP-binding activity (protein, UniProt P38555 2-223, looked up) GTP-binding protein YPT31/YPT8: SSEDYGYDYDLLFKIVLIGDSGVGKSNLLSRFTKNEFNMDSKSTIGVEFATRTLEIDGKRIKAQIWDTAGQERYRAITSAYYRGAVGALIVYDISKSSSYENCNHWLSELRENADDNVAVGLIGNKSDLAHLRAVPTEESKTFAQENQLLFTETSALNSENVDKAFEELINTIYQKVSKHQMDLGDSSANGNANGASAPNGPTISLTPTPNENKKANGNNCC", "values": [
      {"measurement": "binding of genomic DNA probe", "setting": "total yeast genomic DNA", "value": "bind the DNA probe"}
    ]},
    {"molecule": "Trm2p: yeast protein involved in DNA repair and RNA processing/modification (protein, UniProt P33753 1-639, looked up) tRNA …: MYEQFEFSFFFFENSDNKVKYKAHLISSIKRWSIITCMRCFWTVQKSIFKARFFACRNFVKKHNYKLISTMTGSTEMVPPTMKHTVDNKRLSSPLTDSGNRRTKKPKLRKYKAKKVETTSPMGVLEFEVNDLLKSQNLSREQVLNDVTSILNDKSSTDGPIVLQYHREVKNVKVLEITSNGNGLALIDNPVETEKKQVVIIPFGLPGDVVNIKVFKTHPYYVESDLLDVVEKSPMRRDDLIRDKYFGKSSGSQLEFLTYDDQLELKRKTIMNAYKFFAPRLVAEKLLPPFDTTVASPLQFGYRTKITPHFDMPKRKQKELSVRPPLGFGQKGRPQWRKDTLDIGGHGSILDIDECVLATEVLNKGLTNERRKFEQEFKNYKKGATILLRENTTILDPSKPTLEQLTEEASRDENGDISYVEVEDKKNNVRLAKTCVTNPRQIVTEYVDGYTFNFSAGEFFQNNNSILPIVTKYVRDNLQAPAKGDDNKTKFLVDAYCGSGLFSICSSKGVDKVIGVEISADSVSFAEKNAKANGVENCRFIVGKAEKLFESIDTPSENTSVILDPPRKGCDELFLKQLAAYNPAKIIYISCNVHSQARDVEYFLKETENGSAHQIESIRGFDFFPQTHHVESVCIMKRI", "values": [
      {"measurement": "binding of genomic DNA probe", "setting": "total yeast genomic DNA", "value": "identified"}
    ]},
    {"molecule": "Sqt1p: yeast protein that interacts with Rp110p (protein, UniProt P35184 1-431, looked up) Ribosome assembly protein SQT1: MEPQEEFITTEEVEQEIVPTVEVEQDVPVDIEGENDDDDEMMNDDEEALEVDMSNNSLTYFDKHTDSVFAIGHHPNLPLVCTGGGDNLAHLWTSHSQPPKFAGTLTGYGESVISCSFTSEGGFLVTADMSGKVLVHMGQKGGAQWKLASQMQEVEEIVWLKTHPTIARTFAFGATDGSVWCYQINEQDGSLEQLMSGFVHQQDCSMGEFINTDKGENTLELVTCSLDSTIVAWNCFTGQQLFKITQAEIKGLEAPWISLSLAPETLTKGNSGVVACGSNNGLLAVINCNNGGAILHLSTVIELKPEQDELDASIESISWSSKFSLMAIGLVCGEILLYDTSAWRVRHKFVLEDSVTKLMFDNDDLFASCINGKVYQFNARTGQEKFVCVGHNMGVLDFILLHPVANTGTEQKRKVITAGDEGVSLVFEVPN", "values": [
      {"measurement": "binding of genomic DNA probe", "setting": "total yeast genomic DNA", "value": "tested positive"}
    ]},
    {"molecule": "Ils1p: isoleucyl-tRNA synthetase (protein, UniProt P09436 1-1072, looked up) Isoleucine--tRNA ligase, …: MSESNAHFSFPKEEEKVLSLWDEIDAFHTSLELTKDKPEFSFFDGPPFATGTPHYGHILASTIKDIVPRYATMTGHHVERRFGWDTHGVPIEHIIDKKLGITGKDDVFKYGLENYNNECRSIVMTYASDWRKTIGRLGRWIDFDNDYKTMYPSFMESTWWAFKQLHEKGQVYRGFKVMPYSTGLTTPLSNFEAQQNYKDVNDPAVTIGFNVIGQEKTQLVAWTTTPWTLPSNLSLCVNADFEYVKIYDETRDRYFILLESLIKTLYKKPKNEKYKIVEKIKGSDLVGLKYEPLFPYFAEQFHETAFRVISDDYVTSDSGTGIVHNAPAFGEEDNAACLKNGVISEDSVLPNAIDDLGRFTKDVPDFEGVYVKDADKLIIKYLTNTGNLLLASQIRHSYPFCWRSDTPLLYRSVPAWFVRVKNIVPQMLDSVMKSHWVPNTIKEKRFANWIANARDWNVSRNRYWGTPIPLWVSDDFEEVVCVGSIKELEELTGVRNITDLHRDVIDKLTIPSKQGKGDLKRIEEVFDCWFESGSMPYASQHYPFENTEKFDERVPANFISEGLDQTRGWFYTLAVLGTHLFGSVPYKNVIVSGIVLAADGRKMSKSLKNYPDPSIVLNKYGADALRLYLINSPVLKAESLKFKEEGVKEVVSKVLLPWWNSFKFLDGQIALLKKMSNIDFQYDDSVKSDNVMDRWILASMQSLVQFIHEEMGQYKLYTVVPKLLNFIDELTNWYIRFNRRRLKGENGVEDCLKALNSLFDALFTFVRAMAPFTPFLSESIYLRLKEYIPEAVLAKYGKDGRSVHFLSYPVVKKEYFDEAIETAVSRMQSVIDLGRNIREKKTISLKTPLKTLVILHSDESYLKDVEALKNYIIEELNVRDVVITSDEAKYGVEYKAVADWPVLGKKLKKDAKKVKDALPSVTSEQVREYLESGKLEVAGIELVKGDLNAIRGLPESAVQAGQETRTDQDVLIIMDTNIYSELKSEGLARELVNRIQKLRKKCGLEATDDVLVEYELVKDTIDFEAIVKEHFDMLSKTCRSDIAKYDGSKTDPIGDEEQSINDTIFKLKVFKL", "values": [
      {"measurement": "binding of genomic DNA probe", "setting": "total yeast genomic DNA", "value": "identified"}
    ]},
    {"molecule": "THI13: yeast protein involved in nucleotide metabolism, GST-HisX6 fusion (protein, UniProt Q07748 1-340, looked up, GST-His6 tag, yeast protein involved in nucleotide metabolism, GST-HisX6 fusion) 4-amino-5-hydroxymethyl-2-meth …: MSTDKITFLLNWQPTPYHIPIFLAQTKGYFKEQGLDIAILEPTNPSDVTELIGSGKVDMGLKAMIHTLAAKARGFPVTSVASLLDEPFTGVLYLKGSGITEDFQSLKGKKIGYVGEFGKIQIDELTKHYGMKPEDYTAVRCGMNVAKYIIEGKIDAGIGIECMQQVELEEYLAKQGRPASDAKMLRIDKLACLGCCCFCTVLYICNDEFLKKNPEKVRKFLKAIKKATDYVLADPVKAWKEYIDFKPQLNNDLSYKQYQRCYAYFSSSLYNVHRDWKKVTGYGKRLAILPPDYVSNYTNEYLSWPEPEEVSDPLEAQRLMAIHQEKCRQEGTFKRLALPA", "values": [
      {"measurement": "binding of genomic DNA probe", "setting": "total yeast genomic DNA", "value": "bind the DNA probe"},
      {"measurement": "PI(3)P", "setting": "PI(3)P liposomes", "value": 13.75},
      {"measurement": "PI(3, 4, 5)P3", "setting": "PI(3,4,5)P3 liposomes", "value": 39.04},
      {"measurement": "PI(3, 4)P2", "setting": "PI(3,4)P2 liposomes", "value": 75.66},
      {"measurement": "PI(4, 5)P2", "setting": "PI(4,5)P2 liposomes", "value": 64.67},
      {"measurement": "PC", "setting": "[1]", "value": 43.14},
      {"measurement": "PI(4)P", "setting": "PI(4)P liposomes", "value": 55.09}
    ]}
  ]
}
